Laboratory results: patent WO2010047829A1

Biological target: E1E2 (isolate H77), produced by transfected 293T cells (hepatitis C virus isolate H77 (genotype 1a)) (UniProt P27958)
Assay: cell-based or functional assay

Substance	IC50 titer, neutralization of HCVpp-H77
MAb AR3A (antibody)	0.4 µg/mL
MAb AR3B (antibody)	1 µg/mL
